Measured values published in US20200239586A1 (LA TROBE UNIVERSITY, published 2020).
Ends that are not written are not given here. * marks the point of attachment. Biotin = O=C1N[C@H]2[C@H](CS[C@H]2CCCCC(=O)*)N1

B1: CRCBT-06-001 (antibody, IgG2b, V domains shown)
VH: QVQLQQSGGGLVQPGGSMKLSCIASGFTFSSYWMSWVRQSPEKGLEWVAEIRSKSDNYATHYAESVKGKFTISRDDSKSRFFLQMNNLRAEDTGIYYCSSTYADYFHYWGQGTDLTVSS
VL: DIVMTQTPASLAVSLGQRATISCRASQSVSTSTYSYMHWYQQKPGQPPKLLIKYASSLESGVPARFSGSGSGTDFTLNIHPVEEDDTATYYCQHSWEIPYTFGGGTKLEIKR
B2: CRCBT-06-002 (antibody, IgG1, V domains shown)
VH: EVKLQQSGGGLVQPGGSMKLSCVASGFTFSYYWMNWVRQSPEQGLEWIAEIRLQSNDYPTHYAESVKGRFTISRDDSKNSVYLQMNNLRPEDTGIYYCACRYADYFDHWGQGTTLTVSS
VL: DTVLTQSPASLVVSLGQRATISCRASQSVSTSDYSYIHWYQQKPGQPPKFLIKYASNRDSGVPARFSGSGSGTDFTLNIHPVEEDDTAIYYCQHSWEIPPTFGAGTKLELQR

Experiments:
[1] = target: phage expressed hFn14 mutant L46A (human, UniProt Q9NP84 28-77); assay: phage ELISA (Method 2): antibody coated on the plate, 10-fold dilutions of phage displaying hFn14 L46A; biotin anti-M13 antibody, streptavidin-HRP, TMB, OD 450 nm; x axis = dilution of phage
Sequence of phage expressed hFn14 mutant L46A (Q9NP84 28-77 L46A): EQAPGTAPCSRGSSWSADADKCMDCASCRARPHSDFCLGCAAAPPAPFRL
Excerpt: (§1) ELISAs showing the reactivity of mutant hFn14 phage constructs with the anti-Fn14 monoclonal antibodies CRCBT-06-001, CRCBT-06-002, CRCBT-06-004 compared to ITEM-1 and ITEM-4. Binding was detected using Biotin-conjugated anti-M13-phage monoclonal antibody followed by HRP-conjugated Streptavidin and TMB substrate. Optical density at 450 nm was quantified using a Spectramax spectrophotometer. Error bars for each dilution represent the standard deviation of duplicate assays. FIG. 28A L46A, FIG. 28B D51A and FIG. 28C D62A. In all cases error bars represent the standard deviation. X axis=dilution of phage. Methods according to Epitope mapping using phage expressed Fn14—Method 2.
(§2) The wells of Maxisorp immunoplates (Nunc) were coated overnight at 4° C. with the target monoclonal antibodies or recombinant Tweak-Fc at a concentration of 1.5 μg/ml in PBS. mAb 5G8 was used as a negative control for ELISA plates coated with tested antibodies. […] 10-fold serial dilutions of phage were made using PBS solution and phage dilutions were added to the coated, blocked ELISA plates for 1 hour, shaking at room temperature. […]
(§3) Method A: HRP-conjugated anti-M13-phage antibody (GE Healthcare) at a 1/5000 dilution in PBS was then added to the wells of the ELISA plates for 1 hour, shaking at room temperature. […] Optical density at 450 nm was quantified using a Spectramax absorbance spectrophotometer.

[2] = target: T1, His tagged hFn14 extracellular region mutant R56A (human, UniProt Q9NP84 28-77); assay: ELISA with purified His-tagged hFn14 R56A; x axis 'Log (c)' without unit, µg/ml by the legend
T1 construct: not shown: (His)6 tag
T1 sequence (Q9NP84 28-77 R56A): as the sequence (Q9NP84 28-77 L46A) above, with A19L, R29A counted along it

[3] = target: phage expressed hFn14 mutant H60K (human, UniProt Q9NP84 28-77); assay: phage ELISA (Method 2): antibody coated on the plate, 10-fold dilutions of phage displaying hFn14 H60K; biotin anti-M13 antibody, streptavidin-HRP, TMB, OD 450 nm; x axis = dilution of phage
Sequence of phage expressed hFn14 mutant H60K (Q9NP84 28-77 H60K): as the sequence (Q9NP84 28-77 L46A) above, with A19L, H33K counted along it
Procedure: as §1, with “mutant H60A and H60K” for “mutant”, “ITEM-4. ITEM-2 was assessed on H60K.” for “ITEM-4.”, “assays.” for “assays. FIG. 28A L46A, FIG. 28B D51A and FIG. 28C D62A. In all cases error bars represent the standard deviation.”
The wells of Maxisorp immunoplates (Nunc) were coated overnight at 4° C. with the target monoclonal antibodies or recombinant Tweak-Fc at a concentration of 1.5 μg/ml in PBS. mAb 5G8 was used as a negative control for ELISA plates coated with tested antibodies. […] 10-fold serial dilutions of phage were made using PBS solution and phage dilutions were added to the coated, blocked ELISA plates for 1 hour, shaking at room temperature. Phage was subsequently removed from the wells and the ELISA plates were washed three times with PBS/0.05% Tween 20.
Method A: HRP-conjugated anti-M13-phage antibody (GE Healthcare) at a 1/5000 dilution in PBS was then added to the wells of the ELISA plates for 1 hour, shaking at room temperature. […]

[4] = target: T2, synthetic peptide hFn14 sub-domain 3 (human, cysteine pairing not given here); assay: ELISA on biotinylated sub-domain 3 peptide, mAb at 0.2 ug/ml
T2 construct: also called sub-domain 3 peptide
T2 peptide: ASCRARPHSDFCLGK(Biotin)
Procedure: An additional lysine residue was added to the C-terminus in order to attach a biotin moiety and to enable the peptides to bind to neutravidin coated plates (Pre-blocked; Pierce). For these experiments, a control peptide with a biotin at the C-terminus was used as a negative control and isotype control antibodies were also used.
The ELISA was performed essentially according to the manufacturer's recommended protocol (Pierce). Briefly, peptide was coated onto wells (in duplicate) at 1-10 μg/ml for 2 hours at room temperature. Wells were washed in PBS/0.05% Tween 20/0.1% BSA 3 times and dilutions of each antibody were added in wash buffer for 1 hour with gentle agitation. After another three washes anti-mouse HRP-conjugated to horse radish peroxidase (HRP; Chemicon) was added at 1/1000 dilution for 1 hour shaking. Finally, after 4 further washes the plate was developed using TMB (3,3′,5,5′-tetramethylbenzidine) substrate (Pierce), and the reaction was stopped using 2M H2SO4 solution. Optical density at 450 nm was quantified using a Spectromax absorbance spectrophotometer.
The reactivity of CRCBT-06-001 CRCBT-06-002, CRCBT-06-003, CRCBT-06-004, CRCBT-06-005, CRCBT-06-006 and CRCBT-06-007 with sub-domain 3 was lower than for sub-domain 2, indicating this region may be a partial epitope for these antibodies. However, the differences in binding to this region could reveal subtle variations in the contact regions of the antibodies with hFn14. The order of binding from strongest to weakest was CRCBT-06-005, CRCBT-06-002, CRCBT-06-001, CRCBT-06-006, CRCBT-06-007 and ITEM-1. The relative binding of each antibody to sub-domain 3 at a single point in the linear region of the curves was measured at 0.2 µg/ml (FIG. 21C). […] This could indicate the epitope of ITEM-1 may differ slightly to the CRCBT antibodies based on weaker interaction with surface exposed residues in sub-domain 3.

[5] = target: phage expressed hFn14 mutant D51A (human, UniProt Q9NP84 28-77); assay: phage ELISA (Method 2): antibody coated on the plate, 10-fold dilutions of phage displaying hFn14 D51A; biotin anti-M13 antibody, streptavidin-HRP, TMB, OD 450 nm; x axis = dilution of phage
Sequence of phage expressed hFn14 mutant D51A (Q9NP84 28-77 D51A): as the sequence (Q9NP84 28-77 L46A) above, with A19L, D24A counted along it
Excerpt: as §1, §2, §3

Binder	binding result [1]	binding result [2]	binding result [3]	% decrease in binding compared with CRCBT-06-005 [4] [%]	binding result [5]
B1	binds	binds	binds	60	binds
B2	binds	binds	binds	43	binds
